These results are taken from doi:10.1101/2020.06.24.163345.

The target of this assay is SisCmr7-β (Cmr7 subunit of the S. islandicus Cmr-β complex), dimer (S. islandicus (REY15A)). In words: cryo-EM structure.

With “SisCmr7-β (Cmr7 subunit of the S. islandicus Cmr-β complex), dimer (natural protein)”, the stoichiometry N (as a rule, the number of molecules, sites or subunits per partner or assembly) was determined as 2.
